# Measured values reported in PMC11344278, “Structural and biochemical characterization of the C‐terminal region of the human RTEL1 helicase” (Protein Science : A Publication of the Protein Society, 2024).
# T1: RTEL1 CT-L (entire C-terminal region) (Homo sapiens) (UniProt Q9NZ71)
# T1 sequence (Q9NZ71 whole entry, looked up): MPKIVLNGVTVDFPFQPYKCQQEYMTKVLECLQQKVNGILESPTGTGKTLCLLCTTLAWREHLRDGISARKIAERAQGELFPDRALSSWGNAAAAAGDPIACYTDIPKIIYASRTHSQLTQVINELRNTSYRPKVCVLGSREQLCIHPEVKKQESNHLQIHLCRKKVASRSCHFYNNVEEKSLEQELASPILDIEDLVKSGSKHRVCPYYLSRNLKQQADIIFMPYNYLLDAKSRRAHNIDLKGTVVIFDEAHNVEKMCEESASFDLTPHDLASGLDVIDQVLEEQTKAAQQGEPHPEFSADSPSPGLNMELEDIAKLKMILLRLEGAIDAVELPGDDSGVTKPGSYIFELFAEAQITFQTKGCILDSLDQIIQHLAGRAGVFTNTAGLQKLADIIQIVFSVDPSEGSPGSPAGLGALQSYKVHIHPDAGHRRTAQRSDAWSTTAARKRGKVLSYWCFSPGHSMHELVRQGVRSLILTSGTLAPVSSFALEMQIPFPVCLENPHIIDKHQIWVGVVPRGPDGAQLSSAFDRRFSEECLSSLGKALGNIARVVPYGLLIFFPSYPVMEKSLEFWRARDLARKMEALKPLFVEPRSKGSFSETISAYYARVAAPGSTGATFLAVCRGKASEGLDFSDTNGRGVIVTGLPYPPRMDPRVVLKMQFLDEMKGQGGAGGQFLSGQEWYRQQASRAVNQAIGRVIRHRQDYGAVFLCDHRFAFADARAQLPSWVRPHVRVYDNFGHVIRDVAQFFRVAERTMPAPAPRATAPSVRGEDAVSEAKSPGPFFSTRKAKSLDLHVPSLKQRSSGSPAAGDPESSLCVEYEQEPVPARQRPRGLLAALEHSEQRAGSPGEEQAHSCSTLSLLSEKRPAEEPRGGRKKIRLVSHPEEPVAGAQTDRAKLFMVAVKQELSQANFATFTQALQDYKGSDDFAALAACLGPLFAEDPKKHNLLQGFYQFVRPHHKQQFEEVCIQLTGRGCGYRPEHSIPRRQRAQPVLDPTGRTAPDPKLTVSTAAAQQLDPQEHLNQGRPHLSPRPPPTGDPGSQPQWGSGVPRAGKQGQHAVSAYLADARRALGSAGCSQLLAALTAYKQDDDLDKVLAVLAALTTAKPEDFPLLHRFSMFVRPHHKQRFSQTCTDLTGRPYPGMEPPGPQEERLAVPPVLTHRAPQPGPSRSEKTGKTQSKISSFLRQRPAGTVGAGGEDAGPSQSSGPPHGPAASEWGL
# T2: RTEL1 HHD1-2 (Homo sapiens) (UniProt Q9NZ71)
# T2 sequence: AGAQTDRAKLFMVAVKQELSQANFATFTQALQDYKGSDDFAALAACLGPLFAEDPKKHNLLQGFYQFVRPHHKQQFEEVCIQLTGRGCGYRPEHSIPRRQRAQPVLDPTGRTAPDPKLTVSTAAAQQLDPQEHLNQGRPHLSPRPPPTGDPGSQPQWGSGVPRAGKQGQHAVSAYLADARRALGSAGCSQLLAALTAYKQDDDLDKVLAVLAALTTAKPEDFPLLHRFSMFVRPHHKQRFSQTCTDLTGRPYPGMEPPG
# T3: RTEL1 HHD2 (Homo sapiens, UniProt Q9NZ71 1053-1147)
# T3 sequence: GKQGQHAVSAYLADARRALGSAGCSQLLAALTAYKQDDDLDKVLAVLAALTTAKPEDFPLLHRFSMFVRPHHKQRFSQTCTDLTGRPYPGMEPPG
# Assays:
# [1] = molecular target: T1, RTEL1 CT-L (entire C-terminal region) (Homo sapiens); assay: EMSA; details: 0.5 mM Mg2+, 20 mM Tris pH 7.5, 50 mM KCl, 0.5 mM MgCl2, 10% glycerol, 0.1% Igepal, 10 nM substrate, EMSA at room temperature 15 min (0-160 nM protein), FA at 25 C …
# [2] = molecular target: T2, RTEL1 HHD1-2 (Homo sapiens); assay: fluorescence anisotropy; details: 0.5 mM Mg2+; 20 mM Tris pH 7.5, 50 mM KCl, 0.5 mM MgCl2, 10% glycerol, 0.1% Igepal, 10 nM substrate; EMSA at room temperature 15 min (0-160 nM protein), FA at 25 C …
# RTEL1 HHD2 = molecular target: T3, RTEL1 HHD2; assay: fluorescence anisotropy; 0.5 mM Mg2+; 20 mM Tris pH 7.5, 50 mM KCl, 0.5 mM MgCl2, 10% glycerol, 0.1% Igepal, 10 nM substrate; EMSA at room temperature 15 min (0-160 nM protein), FA at 25 C (0-2500 nM protein); Hill-slope fit; details: protein: recombinant, tags: N-terminal 6His-Trx removed by TEV
# [3] = molecular target: T4, human PCNA (Proliferating Cell Nuclear Antigen) (human, UniProt P12004 1-261, uniformly 2H,13C,15N labelled (for NMR experiments)); assay: ITC; 16.8 uM PCNA in the cell, 282 uM PIP1 peptide in the syringe; 35 °C; PBS pH 7.0, 1 mM TCEP; fitted to a 1:1 binding model (one set of identical sites); details: both partners purified
# T4 construct: 3-residue N-terminal extension left after HRV 3C cleavage, preceding the native initial methionine; human PCNA, UniProt P12004, from the native initial methionine; The methods describe only the isotopically labelled PCNA made for NMR; not shown: His6, N-terminal, cleaved
# T4 sequence (P12004 other isoform, or with tags, fused parts or gaps): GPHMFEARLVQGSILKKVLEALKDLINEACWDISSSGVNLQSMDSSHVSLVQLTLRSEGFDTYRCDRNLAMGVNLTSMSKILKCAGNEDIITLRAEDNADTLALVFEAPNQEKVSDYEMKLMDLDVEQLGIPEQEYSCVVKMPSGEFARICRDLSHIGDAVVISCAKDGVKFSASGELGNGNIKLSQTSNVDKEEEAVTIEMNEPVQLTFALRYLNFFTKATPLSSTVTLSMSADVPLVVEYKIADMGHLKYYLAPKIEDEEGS
Molecule,Kd [1],Kd [2],other results
CUACCCCCACCCUCACAACCUUUUUUUUUUUUUUU / UUUUUUUUUUUUUUUGGUUGUGAGGGUGGGGGUA [RNA fork (R1L:R3L)],51 nM,273 nM,–
CUACCCCCACCCUCACAACCUUUUUUUUUUUUUUU [ssRNA],46 nM,192 nM,–
CTACTACCCCCACCCTCACAACCTTTTTTTTTTTTTTT / TTTTTTTTTTTTTTTGGTTGTGAGGGTGGGGGTAGTAG [DNA fork (D1L:D3L)],43 nM,155 nM,–
UUAGGGUUAGGGUUAGGGUUAGGG [TERRA G4],–,38 nM,Kd ([1]; K+): 10 nM
CTACTACCCCCACCCTCACAACCTTTTTTTTTTTTTTT / UUUUUUUUUUUUUUUGGUUGUGAGGGUGGGGGUA [DNA/RNA fork (D1L:R3L)],52 nM,–,–
CTACTACCCCCACCCTCACAACCTTTTTTTTTTTTTTT [ssDNA],40 nM,247 nM,–
GTACCCGGGGATCCTCTAGAGTCGACCTGCAGGCATGCAAGCTTGGCACTGGCCGTCGTTTTACAAC / GTTGTAAAACGACGGCCAGTGCCTTTTCCCAGCCTCAATCTCATCACTCTAGAGGATCCCCGGGTAC / GCUUGCAUGCCUGCAGGCCAGCCUCAAUCUCAUCUUUUU [R-loop (R4:D9:D11)],10 nM,160 nM,–
CTACTACCCCCACCCTCACAACC (double strand) [dsDNA (D1B:D3B)],63 nM,–,–
GTACCCGGGGATCCTCTAGAGTCGACCTGCAGGCATGCAAGCTTGGCACTGGCCGTCGTTTTACAAC / GTTGTAAAACGACGGCCAGTGCCTTTTCCCAGCCTCAATCTCATCACTCTAGAGGATCCCCGGGTAC [Bubble (D9:D11)],27 nM,–,–
TGAGGGTGGGTAGGGTGGGTAA [1XAV c-Myc promoter G4],–,–,Kd ([1]; K+): 57 nM
TTAGGGTTAGGGTTAGGGTTAGGGTT [2JPZ telomeric G4],–,–,Kd ([1]; K+): 26 nM
GTACCCGGGGATCCTCTAGAGTCGACCTGCAGGCATGCAAGCTTGGCACTGGCCGTCGTTTTACAAC / GTTGTAAAACGACGGCCAGTGCCTTTTCCCAGCCTCAATCTCATCACTCTAGAGGATCCCCGGGTAC / GCTTGCATGCCTGCAGGCCAGCCTCAATCTCATC [D-loop (D4:D9:D11)],11 nM,327 nM,–
RNA fork (R1L:R3L) (dsRNA) RNA 1: CUACCCCCACCCUCACAACCUUUUUUUUUUUUUUU RNA 2: UUUUUUUUUUUUUUUGGUUGUGAGGGUGGGGGUA,–,–,"Kd (RTEL1 HHD2; label: 5' 6-FAM on strand 1, fork with U15 arms (3' on strand 1, 5' on strand 2), end as printed not fully blunt): 512 ± 104 nM"
DNA fork (D1L:D3L) (dsDNA) DNA 1: CTACTACCCCCACCCTCACAACCTTTTTTTTTTTTTTT DNA 2: TTTTTTTTTTTTTTTGGTTGTGAGGGTGGGGGTAGTAG,–,–,"Kd (RTEL1 HHD2; label: 5' 6-FAM on strand 1, fork: 23 bp duplex, T15 arms (3' on strand 1, 5' on strand 2)): 254 ± 52 nM"
UUAGGGUUAGGGUUAGGGUUAGGG (structured_RNA) [TERRA G4],–,–,"Kd (RTEL1 HHD2; label: 5' 6-FAM, G4): 489 ± 124 nM"
QSKISSFL [RTEL1 PIP1 peptide (canonical PIP-box of human RTEL1)],–,–,Kd [3]: 53300 ± 7200 nM
